Results: the supplement of paper PMC10567573
± gives the standard deviation.

Test: protein stability index of a GFP-peptide fusion (GPS, HEK-293T) (PSI 1-6); higher = more stable
Conditions: c terminus: a fixed tail appended
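Note: 24-mer peptide tiles fused after GFP, lentivirally expressed, FACS-sorted into six equal bins by GFP/DsRed ratio, decoded by Illumina sequencing, PSI is the read-weighted mean bin number.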

Row | Sequence | protein stability index (treatment: DMSO) | protein stability index (treatment: MLN4924 1 uM, 8 h)
1 | KKDKCGRTPLHYAAANCHFHCIET [ANKRD44] | 2.5 ± 0.096 | 2.63 ± 0.29
2 | IKEQLIQEGLLDRCVSFQARFAEK [HDAC6] | 2.81 ± 0.19 | 2.73 ± 0.36
3 | AGNDPYCFVEFHEHRHAAAALAAM [TIA1] | 2.66 ± 0.17 | 2.7 ± 0.25
4 | GGKYLGRTKVVKPYSTVDNPVYYG [EFHC1] | 2.87 ± 0.33 | 2.97 ± 0.33
5 | EEEGGEEEEEAAMYEEEMEREEIT [FAM50A] | 5.6 ± 0.13 | 5.71 ± 0.11
6 | MDSKDVEVSSIQVRRKPQHGVCSQ [SERPINB9P1] | 4.47 ± 0.13 | 4.64 ± 0.22
7 | GMEGDWSWVDDTPFNKVQSARFWI [CD207] | 1.82 ± 0.3 | 2.25 ± 0.32
8 | GSLDNAHHVPGGGNVKIDSQKLNF [MAP2] | 4.27 ± 0.18 | 4.43 ± 0.32
9 | VKVHGLLKTFVKQTDHIKGIRQIT [GFOD1] | 2.53 ± 0.38 | 2.34 ± 0.41
10 | ALAREFSCPFFETSAAYRYYIDDV [RIT1] | 2.29 ± 0.13 | 2.08 ± 0.12
11 | IFAWNKWIDIKQFVWYTPPTFMIA [STEAP1] | 2.97 ± 1.2 | 2.95 ± 0.64
12 | LVLLRQMLLELTRRGQEPLSALLQ [BCL2L13] | 2.37 ± 0.22 | 2.62 ± 0.48
13 | WIVDKQHVYIGSAGLDWQSLGQMK [PLD5] | 2.44 ± 0.42 | 2.16 ± 0.24
14 | AGQRGEPGPKGDPGEKSHWGEGLH [EMID1] | 4.34 ± 0.36 | –
15 | RVFSQGSHAWEVALGGLQSWRVGV [TRIM35] | 2.46 ± 0.42 | 2.31 ± 0.38
16 | MIHGRSVLHIVASLIILHLSGATK [NETO1] | 3.03 ± 0.24 | 3.02 ± 0.54
17 | VFLIIYYLDPSVLSGVSCFVMFLC [ARL6IP1] | 2.64 ± 0.29 | 2.91 ± 0.91
18 | LEPAQRPPLSHIMAQPLCIRALLN [NEK8] | 3.35 ± 0.21 | 3.48 ± 0.16
19 | APPPADSAPQQNGQPLRPLVPDAS [PDLIM7] | 5.27 ± 0.12 | 5.37 ± 0.13
20 | NLWYSFQDEEDMFMVVDLLLGGDL [STK32A] | 2.41 ± 0.69 | 2.2 ± 0.39
21 | GARAALNEIESRHRELLRLESRIR [STX11] | 3.46 ± 0.26 | 3.72 ± 0.35
22 | RAYGFRGPGPQLRRGWRPSSREDS [CHGA] | 3.9 ± 0.4 | 4.07 ± 0.47

Row | Sequence | protein stability index (treatment: DMSO) | protein stability index (treatment: MLN4924 1 uM, 8 h)
23 | YQKILAGKIDFPRHLDFHVKDLIK [PRKX] | 2.19 ± 0.97 | 2.1 ± 0.4
24 | EHPNVVRLMDVCATSRTDREIKVT [CDK4] | 3.93 ± 0.36 | 4.14 ± 0.38
25 | SQKLNFREHAKARVDHGAEIITQS [MAP2] | 3.98 ± 0.28 | 4.34 ± 0.38
26 | RPKLSEEQQRIIAILLDAHHKTYD [VDR] | 2.58 ± 0.28 | 2.75 ± 0.41
27 | INPFTPDSLLLHSSGQCRRRKRTY [WEE1] | 3.62 ± 0.4 | 3.83 ± 0.41
28 | KNELERDSKIVVPPLPGKALKRQL [SNX12] | 4.5 ± 0.26 | 4.56 ± 0.2
29 | NDINILRVSNPGRLAELLLLETDA [GADD45A] | 2.31 ± 0.19 | 2.5 ± 0.5
30 | SVTGHTNIVEYLIQEQPGQEQVAG [FEM1A] | 4.45 ± 0.073 | 4.57 ± 0.17
31 | WSRNSKPVHTTILNPHIHLMGDES [CAMK2A] | 3.4 ± 0.28 | 3.53 ± 0.08
32 | VSVNLEAFSQAISAIQALRSSVSR [MED27] | 3.17 ± 0.15 | 3.24 ± 0.28
33 | ERPAQRDCSFPGLPRHQDQPHHQP [TRAF3IP2] | 4.72 ± 0.15 | 4.64 ± 0.28
34 | EHPFLVNLWYSFQDEEDMFMVVDL [STK32A] | 2.9 ± 0.73 | 2.63 ± 0.58
35 | TLWKHQFAWPFYQPVDAIKLNLPD [BRD3] | 2.46 ± 0.63 | 2.3 ± 0.13
36 | DPDECGSDYISEFRFAPNHTKELE [EPB41L3] | 2.91 ± 0.91 | 3.67 ± 0.79
37 | QFLGFSWIFVNLTVRFCILGKESF [HACD3] | 3.49 ± 0.52 | 3.25 ± 0.16
38 | AGNSSRNSSQSSSDGSCKTAGEMV [BTBD10] | 5.16 ± 0.35 | 5.14 ± 0.22
39 | LRRVLDELTLSKTDLEMQIESLNE [KRT13] | 3.12 ± 0.098 | 2.98 ± 0.068
40 | EETESSDDVEVLTLKKFKGDLAYR [C8orf76] | 4.71 ± 0.19 | 4.61 ± 0.16
41 | LSHSPQEDWVLLGMANGQQWLQST [TLE6] | 2.57 ± 0.3 | 2.52 ± 0.26
42 | IALVENIPEGLNYSENAPFHLSLF [PLD5] | 2.2 ± 0.83 | 2.25 ± 0.24
43 | FVQVKGNFARLQTCISELRMLQRE [M1AP] | 2.47 ± 0.75 | 2.11 ± 0.22
44 | ALPEAPAPLLPHITATSLLGTRES [BCL2L13] | 4.67 ± 0.23 | 4.56 ± 0.16

Row | Sequence | protein stability index (treatment: DMSO) | protein stability index (treatment: MLN4924 1 uM, 8 h)
45 | PDYGVPSSAASLIDFLRVVRNQQS [PTPN9] | 2.84 ± 0.24 | 3.14 ± 0.25
46 | FQGQKTELNNCISMLVAGNDRVQT [TRIM63] | 3.13 ± 0.15 | 3.41 ± 0.42
47 | GGGGGGGGKSGGIVISPFRLEELT [CCDC6] | 3.34 ± 0.12 | 3.59 ± 0.41
48 | VNNDKSISVQELMGCLGVAKEDGK [SMOC2] | 4.47 ± 0.13 | 4.62 ± 0.19
49 | VRLLLEFKAEVDPLSDKGTTPLQL [ASB7] | 2.16 ± 0.48 | 2.31 ± 0.4
50 | EEEGPSTFPDLESEFQAALSRKVA [MAGEA3] | 4.95 ± 0.22 | 5.12 ± 0.22
51 | MHHCKRYRSPEPDPYLSYRWKRRR [CLK3] | 3.49 ± 0.39 | 3.69 ± 0.21
52 | LIKEGGMPLLRDIIKMATARQETK [ZER1] | 2.69 ± 0.32 | 2.65 ± 0.38
53 | VGYTTLVGNNHESWGWDLGRNRLY [SPSB1] | 2.26 ± 0.35 | 2.12 ± 0.25
54 | GIGYNGMPNGCSDDVLPWRRTAEN [DCTD] | 3.03 ± 0.24 | 2.87 ± 0.1
55 | SPQEDGQIMFDVEMHTSRDHSSQS [BNIP3L] | 5.21 ± 0.2 | 5.21 ± 0.13
56 | EDQTEYLEERRVKEVVKKHSQFIG [HSP90AB1] | 4.11 ± 0.16 | 4.93 ± 0.17
57 | DTGHDSDKSDQSLPNASADSLGGS [TRAF3IP2] | 5.35 ± 0.42 | 5.51 ± 0.18
58 | ETTESQQNGEEGTSTPEDKESGQE [SMARCE1] | 5.61 ± 0.18 | 5.23 ± 0.17
59 | RSPYAGLQLGAAKKPPVTFAEKGE [TRIM29] | 4.09 ± 0.22 | 4.26 ± 0.2
60 | ADESVLWQLFGPFGAVTNVKVIRD [ELAVL3] | 2.23 ± 0.18 | 2.35 ± 0.33
61 | VISPVIQLQPTFTPMRVALAGTFH [NSDHL] | 2.42 ± 0.54 | 2.1 ± 0.11
62 | PLIKATVGLIRNLALCPANHAPLR [CTNNB1] | 2.39 ± 0.47 | 2.55 ± 0.43
63 | SSTNFAMKRDVQEGQARCLAHLGR [C8orf76] | 3.66 ± 0.058 | 3.68 ± 0.28
64 | CEEWSFFHAYYYCFITLTTIGFGD [KCNK9] | 3.33 ± 0.098 | 2.96 ± 0.37
65 | PCSVIRPILKRLERPQDRDTPVQN [CDC25B] | 4.31 ± 0.15 | 4.51 ± 0.066
